According to publication PMC9381089 (Molecular Cancer Therapeutics, 2022):

B1: ABBV-011 (SC17 conjugated to the calicheamicin linker drug LD19.10) (antibody, V domains shown)
VH: EVQLVQSGAEVKKPGESLKISCKGSGYSFTSSWINWVRQMPGKGLEWMGRIYPGEGDTNYSGNFEGQVTISADKSISTAYLQWSSLKASDTAMYYCTRGLVMDYWGQGTLVTVSS
VL: EIVLTQSPATLSLSPGERATLSCRASQSVDYNGISYMHWYQQKPGQAPRLLIYAASNVQSGIPARFSGSGSGTDFTLTISSLEPEDFAVYYCQQSIEDPPTFGGGTKVEIK
B2: SC17, humanized anti-SEZ6 monoclonal antibody (antibody, V domains shown)
VH: EVQLVQSGAEVKKPGESLKISCKGSGYSFTSSWINWVRQMPGKGLEWMGRIYPGEGDTNYSGNFEGQVTISADKSISTAYLQWSSLKASDTAMYYCTRGLVMDYWGQGTLVTVSS
VL: EIVLTQSPATLSLSPGERATLSCRASQSVDYNGISYMHWYQQKPGQAPRLLIYAASNVQSGIPARFSGSGSGTDFTLTISSLEPEDFAVYYCQQSIEDPPTFGGGTKVEIK

What was measured:
[1] = target: murine SEZ6, ectopically expressed on 293T cells (Mus musculus (Mouse)., UniProt Q7TSK2); test: flow cytometry on cells
Chain of murine SEZ6, ectopically expressed on 293T cells (Q7TSK2 20-991): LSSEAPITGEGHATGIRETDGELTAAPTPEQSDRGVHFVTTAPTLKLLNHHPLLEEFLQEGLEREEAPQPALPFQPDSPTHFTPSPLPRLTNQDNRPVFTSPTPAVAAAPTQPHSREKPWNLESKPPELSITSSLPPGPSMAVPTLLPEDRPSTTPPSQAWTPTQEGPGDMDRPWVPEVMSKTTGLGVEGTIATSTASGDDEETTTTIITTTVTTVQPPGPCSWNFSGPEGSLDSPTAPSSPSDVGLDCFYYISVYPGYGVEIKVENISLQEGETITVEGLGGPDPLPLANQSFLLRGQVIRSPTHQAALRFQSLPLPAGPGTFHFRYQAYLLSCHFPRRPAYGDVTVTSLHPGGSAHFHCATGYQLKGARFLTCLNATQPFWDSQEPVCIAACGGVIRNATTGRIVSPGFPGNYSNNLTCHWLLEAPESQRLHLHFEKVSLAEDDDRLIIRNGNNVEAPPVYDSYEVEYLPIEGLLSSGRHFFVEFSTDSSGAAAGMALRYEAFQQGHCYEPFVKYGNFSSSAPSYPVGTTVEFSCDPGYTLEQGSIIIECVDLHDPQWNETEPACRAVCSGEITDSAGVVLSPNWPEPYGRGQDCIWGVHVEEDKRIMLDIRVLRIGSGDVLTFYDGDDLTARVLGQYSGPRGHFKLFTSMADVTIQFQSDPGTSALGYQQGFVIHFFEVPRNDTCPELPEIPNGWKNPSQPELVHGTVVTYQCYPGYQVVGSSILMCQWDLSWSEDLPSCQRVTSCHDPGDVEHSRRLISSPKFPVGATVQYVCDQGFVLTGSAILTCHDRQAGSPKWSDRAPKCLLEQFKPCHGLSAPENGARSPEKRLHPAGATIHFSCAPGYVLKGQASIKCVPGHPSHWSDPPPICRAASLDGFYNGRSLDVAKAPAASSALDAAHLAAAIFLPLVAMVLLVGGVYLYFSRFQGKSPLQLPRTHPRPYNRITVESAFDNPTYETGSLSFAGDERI

[2] = target: cynomolgus monkey SEZ6, ectopically expressed on 293T cells (Macaca fascicularis, UniProt A0A2K5WPJ4); test: flow cytometry on cells

| Binder | binding result [1] | binding result [2] |
| --- | --- | --- |
| B1 | binds | binds |
| B2 |  | binds |
